The target in this test is GST (UniProt P08515 1-218 = GST). The experiment in a line: pull-down on glutathione sepharose, Western blot with anti-T7. Background: Immunoblotting shows a protein as a band on a membrane.
GST, sequence (P08515 whole entry): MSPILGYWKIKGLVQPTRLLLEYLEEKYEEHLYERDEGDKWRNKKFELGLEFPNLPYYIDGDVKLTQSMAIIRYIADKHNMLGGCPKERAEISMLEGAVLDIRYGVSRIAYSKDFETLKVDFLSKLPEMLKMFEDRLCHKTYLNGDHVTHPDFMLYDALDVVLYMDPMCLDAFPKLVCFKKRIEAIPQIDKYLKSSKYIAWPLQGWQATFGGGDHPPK

B1: T7-ATR41-227 (fusion protein having a hexahistidine tag, a T7 tag, and amino acids 41 to 227 of ATR) (receptor)
chain: GGFDLYFILDKSGSVLHHWNEIYYFVEQLAHKFISPQLRMSFIVFSTRGTTLMKLTEDREQIRQGLEELQKVLPGGDTYMHEGFERASEQIYYENRQGYRTASVIIALTDGELHEDLFFYSEREANRSRDLGAIVYCVGVKDFNETQLARIADSKDHVFPVNDGFQALQGIIHSILKKSCIEILAAE
notes: also called the I domain; extracellular fragment of ATR
B1: the binding result was “no binding”.

The record behind these values is US20060110801A1 (WISCONSIN ALUMNI RESEARCH FOUNDATION, published 2006).
